{"source": "patent US10280205B2", "about": "“Method for treating cancer with an activated T lymphocyte that selectively recognizes a cancer cell consisting of specific peptide” (immatics biotechnologies GmbH, priority 2015, dated 2019)"}
{"target": "HLA-A*02:01 (Homo sapiens, UniProt P04439, D140Y/D185E/D98H/E176V/E277Q/G131W/G231S/I119V/I121R/I166T/I218V/L300P/L318F/N151K/N90K/P208A/P217A/Q86G/Q94H/R138H/R169H/T345S)", "assay": "MHC binding assay: UV-ligand exchange with beta2m ELISA (exchange yield)", "conditions": "binding to HLA-A*02:01, β2m ELISA", "method_in_brief": "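Exchange yield reflects how much β2m remains bound, measured by ELISA: streptavidin capture of 100-fold diluted monomers, HRP anti-β2m at 37° C. for 1 h, TMB read at 450 nm. Monomers come from UV cleavage of a conditional HLA-A*02:01 ligand in the presence of the candidate peptide.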"}
{"substance": "127 (KIGDEPPKV; listed as Homo sapiens) [compound 127]", "Peptide exchange (MHC class I binding score, peptide exchange yield)": "“++” (≥20% = ++)"}
{"substance": "91 (IMQDFPAEIFL; listed as Homo sapiens) [compound 91]", "Peptide exchange (MHC class I binding score, peptide exchange yield)": "“++++” (≥75% = ++++)"}
{"substance": "92 (YLIPFTGIVGL; listed as Homo sapiens) [compound 92]", "Peptide exchange (MHC class I binding score, peptide exchange yield)": "“++” (≥20% = ++)"}
{"substance": "327 (GLAPFTEGISFV; listed as Homo sapiens) [compound 327]", "Peptide exchange (MHC class I binding score, peptide exchange yield)": "“+++” (≥50 = +++)"}
{"substance": "245 (SMIDDLLGV; listed as Homo sapiens) [compound 245]", "Peptide exchange (MHC class I binding score, peptide exchange yield)": "“+++” (≥50 = +++)"}
{"substance": "189 (ALQRKLPYV; listed as Homo sapiens) [compound 189]", "Peptide exchange (MHC class I binding score, peptide exchange yield)": "“+++” (≥50 = +++)"}
{"substance": "549 (AMLENASDIKL; listed as Homo sapiens) [compound 549]", "Peptide exchange (MHC class I binding score, peptide exchange yield)": "“+++” (≥50 = +++)"}
{"substance": "399 (YLFEPLYHV; listed as Homo sapiens) [compound 399]", "Peptide exchange (MHC class I binding score, peptide exchange yield)": "“+++” (≥50 = +++)"}
{"substance": "463 (SLVESHLSDQLTL; listed as Homo sapiens) [compound 463]", "Peptide exchange (MHC class I binding score, peptide exchange yield)": "“+++” (≥50 = +++)"}
{"substance": "75 (GLLEVMVNL; listed as Homo sapiens) [compound 75]", "Peptide exchange (MHC class I binding score, peptide exchange yield)": "“+++” (≥50 = +++)"}
{"substance": "153 (FLIANVLYL; listed as Homo sapiens) [compound 153]", "Peptide exchange (MHC class I binding score, peptide exchange yield)": "“+” (≥10% = +)"}
{"substance": "331 (KVDTVWVNV; listed as Homo sapiens) [compound 331]", "Peptide exchange (MHC class I binding score, peptide exchange yield)": "“+++” (≥50 = +++)"}
{"substance": "405 (ALYDVFLEV; listed as Homo sapiens) [compound 405]", "Peptide exchange (MHC class I binding score, peptide exchange yield)": "“++” (≥20% = ++)"}
{"substance": "261 (YVLEFLEEI; listed as Homo sapiens) [compound 261]", "Peptide exchange (MHC class I binding score, peptide exchange yield)": "“++” (≥20% = ++)"}
{"substance": "442 (GLLGGGGVLGV; listed as Homo sapiens) [compound 442]", "Peptide exchange (MHC class I binding score, peptide exchange yield)": "“+++” (≥50 = +++)"}
{"substance": "264 (SLQEQLHSV; listed as Homo sapiens) [compound 264]", "Peptide exchange (MHC class I binding score, peptide exchange yield)": "“+++” (≥50 = +++)"}
{"substance": "590 (SLIEKLWQT; listed as Homo sapiens) [compound 590]", "Peptide exchange (MHC class I binding score, peptide exchange yield)": "“++” (≥20% = ++)"}
{"substance": "359 (YLLPESVDL; listed as Homo sapiens) [compound 359]", "Peptide exchange (MHC class I binding score, peptide exchange yield)": "“+++” (≥50 = +++)"}
{"substance": "302 (ALLQEGEVYSA; listed as Homo sapiens) [compound 302]", "Peptide exchange (MHC class I binding score, peptide exchange yield)": "“+++” (≥50 = +++)"}
{"substance": "554 (LLMPSSEDLLL; listed as Homo sapiens) [compound 554]", "Peptide exchange (MHC class I binding score, peptide exchange yield)": "“+++” (≥50 = +++)"}
{"substance": "238 (YLISFQTHI; listed as Homo sapiens) [compound 238]", "Peptide exchange (MHC class I binding score, peptide exchange yield)": "“+++” (≥50 = +++)"}
{"substance": "235 (YLNDLHEVLL; listed as Homo sapiens) [compound 235]", "Peptide exchange (MHC class I binding score, peptide exchange yield)": "“++++” (≥75% = ++++)"}
{"substance": "295 (VLDRESPNV; listed as Homo sapiens) [compound 295]", "Peptide exchange (MHC class I binding score, peptide exchange yield)": "“+++” (≥50 = +++)"}
{"substance": "479 (SLFGNSGILENV; listed as Homo sapiens) [compound 479]", "Peptide exchange (MHC class I binding score, peptide exchange yield)": "“+++” (≥50 = +++)"}
{"substance": "135 (ALSEVDFQL; listed as Homo sapiens) [compound 135]", "Peptide exchange (MHC class I binding score, peptide exchange yield)": "“+++” (≥50 = +++)"}
{"substance": "145 (FLATSGTLAGI; listed as Homo sapiens) [compound 145]", "Peptide exchange (MHC class I binding score, peptide exchange yield)": "“++” (≥20% = ++)"}
{"substance": "325 (FIMPATVADATAV; listed as Homo sapiens) [compound 325]", "Peptide exchange (MHC class I binding score, peptide exchange yield)": "“+++” (≥50 = +++)"}
{"substance": "602 (YLLEQIKLIEV; listed as Homo sapiens) [compound 602]", "Peptide exchange (MHC class I binding score, peptide exchange yield)": "“++++” (≥75% = ++++)"}
{"substance": "44 (ILDPISSGFLL; listed as Homo sapiens) [compound 44]", "Peptide exchange (MHC class I binding score, peptide exchange yield)": "“++” (≥20% = ++)"}
{"substance": "239 (AAFAGKLLSV; listed as Homo sapiens) [compound 239]", "Peptide exchange (MHC class I binding score, peptide exchange yield)": "“+++” (≥50 = +++)"}
{"substance": "109 (IILSILEQA; listed as Homo sapiens) [compound 109]", "Peptide exchange (MHC class I binding score, peptide exchange yield)": "“++++” (≥75% = ++++)"}
{"substance": "467 (FLAKDFNFL; listed as Homo sapiens) [compound 467]", "Peptide exchange (MHC class I binding score, peptide exchange yield)": "“+++” (≥50 = +++)"}
{"substance": "226 (MLYVVPIYL; listed as Homo sapiens) [compound 226]", "Peptide exchange (MHC class I binding score, peptide exchange yield)": "“++” (≥20% = ++)"}
{"substance": "253 (GLDAATATV; listed as Homo sapiens) [compound 253]", "Peptide exchange (MHC class I binding score, peptide exchange yield)": "“++” (≥20% = ++)"}
{"substance": "121 (GVVDPRAISVL; listed as Homo sapiens) [compound 121]", "Peptide exchange (MHC class I binding score, peptide exchange yield)": "“++” (≥20% = ++)"}
{"substance": "539 (ALFDAQAQV; listed as Homo sapiens) [compound 539]", "Peptide exchange (MHC class I binding score, peptide exchange yield)": "“+++” (≥50 = +++)"}
{"substance": "175 (YLFENISQL; listed as Homo sapiens) [compound 175]", "Peptide exchange (MHC class I binding score, peptide exchange yield)": "“+++” (≥50 = +++)"}
{"substance": "522 (TLWYRSPEV; listed as Homo sapiens) [compound 522]", "Peptide exchange (MHC class I binding score, peptide exchange yield)": "“++” (≥20% = ++)"}
{"substance": "480 (ALLEDSCHYL; listed as Homo sapiens) [compound 480]", "Peptide exchange (MHC class I binding score, peptide exchange yield)": "“+++” (≥50 = +++)"}
{"substance": "62 (VLLDVSAGQLLM; listed as Homo sapiens) [compound 62]", "Peptide exchange (MHC class I binding score, peptide exchange yield)": "“++++” (≥75% = ++++)"}
{"substance": "492 (SLFDGFADGLGV; listed as Homo sapiens) [compound 492]", "Peptide exchange (MHC class I binding score, peptide exchange yield)": "“+++” (≥50 = +++)"}
{"substance": "490 (FLLQHVQEL; listed as Homo sapiens) [compound 490]", "Peptide exchange (MHC class I binding score, peptide exchange yield)": "“+++” (≥50 = +++)"}
{"substance": "381 (FIDEAYVEV; listed as Homo sapiens) [compound 381]", "Peptide exchange (MHC class I binding score, peptide exchange yield)": "“++” (≥20% = ++)"}
{"substance": "190 (FLSSLTETI; listed as Homo sapiens) [compound 190]", "Peptide exchange (MHC class I binding score, peptide exchange yield)": "“+++” (≥50 = +++)"}
{"substance": "162 (YQQAQVPSV; listed as Homo sapiens) [compound 162]", "Peptide exchange (MHC class I binding score, peptide exchange yield)": "“+++” (≥50 = +++)"}
{"substance": "298 (VMITKLVEV; listed as Homo sapiens) [compound 298]", "Peptide exchange (MHC class I binding score, peptide exchange yield)": "“+++” (≥50 = +++)"}
{"substance": "130 (FLWNGEDSALL; listed as Homo sapiens) [compound 130]", "Peptide exchange (MHC class I binding score, peptide exchange yield)": "“+++” (≥50 = +++)"}
{"substance": "125 (VQIHQVAQV; listed as Homo sapiens) [compound 125]", "Peptide exchange (MHC class I binding score, peptide exchange yield)": "“+++” (≥50 = +++)"}
{"substance": "198 (KTINKVPTV; listed as Homo sapiens) [compound 198]", "Peptide exchange (MHC class I binding score, peptide exchange yield)": "“+++” (≥50 = +++)"}
{"substance": "510 (KLYSVVSQL; listed as Homo sapiens) [compound 510]", "Peptide exchange (MHC class I binding score, peptide exchange yield)": "“++” (≥20% = ++)"}
{"substance": "409 (LLDAMNYHL; listed as Homo sapiens) [compound 409]", "Peptide exchange (MHC class I binding score, peptide exchange yield)": "“++” (≥20% = ++)"}
{"substance": "33 (VLLSLLEKV; listed as Homo sapiens) [compound 33]", "Peptide exchange (MHC class I binding score, peptide exchange yield)": "“++” (≥20% = ++)"}
{"substance": "568 (TLYDIAHTPGV; listed as Homo sapiens) [compound 568]", "Peptide exchange (MHC class I binding score, peptide exchange yield)": "“++++” (≥75% = ++++)"}
{"substance": "279 (ALWGGTQPLL; listed as Homo sapiens) [compound 279]", "Peptide exchange (MHC class I binding score, peptide exchange yield)": "“++” (≥20% = ++)"}
{"substance": "321 (GLFEDVTQPGILL; listed as Homo sapiens) [compound 321]", "Peptide exchange (MHC class I binding score, peptide exchange yield)": "“++++” (≥75% = ++++)"}
{"substance": "83 (ILAPTVMMI; listed as Homo sapiens) [compound 83]", "Peptide exchange (MHC class I binding score, peptide exchange yield)": "“+++” (≥50 = +++)"}
{"substance": "503 (SLNHFTHSV; listed as Homo sapiens) [compound 503]", "Peptide exchange (MHC class I binding score, peptide exchange yield)": "“+++” (≥50 = +++)"}
{"substance": "288 (NLINEINGV; listed as Homo sapiens) [compound 288]", "Peptide exchange (MHC class I binding score, peptide exchange yield)": "“+++” (≥50 = +++)"}
{"substance": "529 (LLADELITV; listed as Homo sapiens) [compound 529]", "Peptide exchange (MHC class I binding score, peptide exchange yield)": "“+++” (≥50 = +++)"}
{"substance": "265 (LLFGGTKTV; listed as Homo sapiens) [compound 265]", "Peptide exchange (MHC class I binding score, peptide exchange yield)": "“++” (≥20% = ++)"}
{"substance": "63 (YLLPSGGSVTL; listed as Homo sapiens) [compound 63]", "Peptide exchange (MHC class I binding score, peptide exchange yield)": "“++” (≥20% = ++)"}
{"substance": "515 (LLQELVLFL; listed as Homo sapiens) [compound 515]", "Peptide exchange (MHC class I binding score, peptide exchange yield)": "“+++” (≥50 = +++)"}
{"substance": "134 (YLQELIFSV; listed as Homo sapiens) [compound 134]", "Peptide exchange (MHC class I binding score, peptide exchange yield)": "“+++” (≥50 = +++)"}
{"substance": "558 (GLLENIPRV; listed as Homo sapiens) [compound 558]", "Peptide exchange (MHC class I binding score, peptide exchange yield)": "“+++” (≥50 = +++)"}
{"substance": "108 (ALFPGVALLLA; listed as Homo sapiens) [compound 108]", "Peptide exchange (MHC class I binding score, peptide exchange yield)": "“++++” (≥75% = ++++)"}
{"substance": "309 (GLFDGVPTTA; listed as Homo sapiens) [compound 309]", "Peptide exchange (MHC class I binding score, peptide exchange yield)": "“+++” (≥50 = +++)"}
{"substance": "200 (LLFGSVQEV; listed as Homo sapiens) [compound 200]", "Peptide exchange (MHC class I binding score, peptide exchange yield)": "“+++” (≥50 = +++)"}
